Measurements taken from patent publication US20100285988A1 (Memorial Sloan Kettering, published 2010).
Where no end group is shown, it is not given here. [ ]: non-standard residue; d: D form. Bpa = N[C@@H](Cc1ccc(C(=O)c2ccccc2)cc1)C(=O)O

Key:
PEN-2 = biological target: T1, PEN-2 (human, UniProt Q9NZ42 1-101); assay: photoaffinity labeling of HeLa membrane, streptavidin capture, western blot
T1 construct: Subunit of the γ-secretase complex in HeLa membrane

APH-1a = biological target: T2, APH-1a (human, UniProt Q96BI3 1-265, limits assumed); assay: as above
T2 construct: Subunit of the γ-secretase complex in HeLa membrane

B1: Aβ17-23BPA^20-biotin (peptide)
peptide: LVF[Bpa]AED-biotin
notes: used at 300 nM; also called biotinylated photoreactive peptide Aβ17-23; photoactive peptide
B1: no binding (tested: 300 nM) (PEN-2); no binding (tested: 300 nM) (APH-1a).
